Read-outs that look alike come from different tables or passages of the source.

The target of one assay is IQN17-2Pro. The assay can be described thus: SPR (Biacore).
The next assay concerns the target IZN17 (HIV) (UniProt P04578). In words: SPR (Biacore).
Another assay concerns the target IZN17-G572D (HIV) (UniProt P04578). In words: SPR (Biacore). (SPR reads the build-up and loss of mass on a sensor chip optically.)
The target in another assay is IZN17-L565M (HIV) (UniProt P04578). The assay can be described thus: SPR (Biacore).
The target in the next assay is IZN17-Q567R (HIV) (UniProt P04578). In words: SPR (Biacore).
Assay [1] addresses D5 IgG.
The target of assay [2] is D5 IgG. The source holds these as a separate data set.
Chain of D5 IgG (VH, as listed by the source, chain 1 of 2): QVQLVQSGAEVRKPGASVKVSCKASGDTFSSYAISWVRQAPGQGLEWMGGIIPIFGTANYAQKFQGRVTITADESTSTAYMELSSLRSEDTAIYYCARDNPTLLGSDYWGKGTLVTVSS
Chain of D5 IgG (VL, as listed by the source, chain 2 of 2): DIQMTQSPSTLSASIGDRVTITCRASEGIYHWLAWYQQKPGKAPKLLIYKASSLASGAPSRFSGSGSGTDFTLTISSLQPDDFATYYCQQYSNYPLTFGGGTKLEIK
Assay [3] addresses gp120 of the HIV-1 HXB2 envelope (HIV-1 strain HXB2) (UniProt P04578). The assay can be described thus: cell-based or functional assay.

Chain of D5 IgG (antibody) (VH): as the sequence (VH, as listed by the source, chain 1 of 2) above
Chain of D5 IgG (antibody) (VL): as the sequence (VL, as listed by the source, chain 2 of 2) above

Consider D5 IgG (antibody), for which the Kd came out at 240 nM in the assay with IQN17-2Pro; 0.1 nM in the assay with IZN17 (HIV); 550 nM with IZN17-G572D (HIV); 0.3 nM with IZN17-L565M (HIV); 1.5 nM with IZN17-Q567R (HIV). Also, the koff is 0.0022 s⁻¹ in the assay with IQN17-2Pro; 0.00059 s⁻¹ with IZN17 (HIV); 0.003 s⁻¹ with IZN17-G572D (HIV); 0.00089 s⁻¹ with IZN17-L565M (HIV); 0.0012 s⁻¹ with IZN17-Q567R (HIV). Also, the on-rate constant (kon) was 9000 M⁻¹ s⁻¹ in the assay with IQN17-2Pro; 6.1e+06 M⁻¹ s⁻¹ with IZN17 (HIV); 5500 M⁻¹ s⁻¹ with IZN17-G572D (HIV); 3e+06 M⁻¹ s⁻¹ in the assay with IZN17-L565M (HIV); 800000 M⁻¹ s⁻¹ in the assay with IZN17-Q567R (HIV).
“IZN17 V570A (from UniProt P04578 565-581) (peptide)” registered an IC50 (read off the curve) with D5 IgG [1] of 7 nM.
The substance “IZN17-Q567R (from UniProt P04578 565-581) (peptide)” showed an IC50 (read off the curve) with D5 IgG [2] of 10 nM.
X5 scFv: the IC50, single cycle infectivity assay against HIV-HXB2 in assay [3] came to 30 nM.
In the case of “IZN17-L565M (from UniProt P04578 565-581) (peptide)”, in the assay with D5 IgG [2], the IC50 (read off the curve) came to 10 nM.
“IZN17 (from UniProt P04578 565-581) (peptide)”: the IC50 (read off the curve) with D5 IgG [2] was 7 nM; in the assay with D5 IgG [1], 2 nM.

Broadly, the Kd is the free concentration of one partner at which half of the binding sites on the other are occupied at equilibrium, for simple one-to-one binding. By koff is commonly meant the first-order rate constant of dissociation. Low readings indicate a long-lived complex, high ones a short-lived complex. The term kon denotes a measure of how fast the partners come together.

These data come from patent US20070248613A1.
